Laboratory results: patent publication US20210290759A1 (BRAVOVAX, published 2021)

Key:
[1] = target: TLR-5 receptor on THP-1 cells (UniProt O60602); experiment: cell-based or functional assay
[2] = target: TLR-5 receptor on THP-1 cells (UniProt O60602 21-858); experiment: cell-based or functional assay
Chain of TLR-5 receptor on THP-1 cells (UniProt O60602 21-858) (O60602 21-858 limits assumed): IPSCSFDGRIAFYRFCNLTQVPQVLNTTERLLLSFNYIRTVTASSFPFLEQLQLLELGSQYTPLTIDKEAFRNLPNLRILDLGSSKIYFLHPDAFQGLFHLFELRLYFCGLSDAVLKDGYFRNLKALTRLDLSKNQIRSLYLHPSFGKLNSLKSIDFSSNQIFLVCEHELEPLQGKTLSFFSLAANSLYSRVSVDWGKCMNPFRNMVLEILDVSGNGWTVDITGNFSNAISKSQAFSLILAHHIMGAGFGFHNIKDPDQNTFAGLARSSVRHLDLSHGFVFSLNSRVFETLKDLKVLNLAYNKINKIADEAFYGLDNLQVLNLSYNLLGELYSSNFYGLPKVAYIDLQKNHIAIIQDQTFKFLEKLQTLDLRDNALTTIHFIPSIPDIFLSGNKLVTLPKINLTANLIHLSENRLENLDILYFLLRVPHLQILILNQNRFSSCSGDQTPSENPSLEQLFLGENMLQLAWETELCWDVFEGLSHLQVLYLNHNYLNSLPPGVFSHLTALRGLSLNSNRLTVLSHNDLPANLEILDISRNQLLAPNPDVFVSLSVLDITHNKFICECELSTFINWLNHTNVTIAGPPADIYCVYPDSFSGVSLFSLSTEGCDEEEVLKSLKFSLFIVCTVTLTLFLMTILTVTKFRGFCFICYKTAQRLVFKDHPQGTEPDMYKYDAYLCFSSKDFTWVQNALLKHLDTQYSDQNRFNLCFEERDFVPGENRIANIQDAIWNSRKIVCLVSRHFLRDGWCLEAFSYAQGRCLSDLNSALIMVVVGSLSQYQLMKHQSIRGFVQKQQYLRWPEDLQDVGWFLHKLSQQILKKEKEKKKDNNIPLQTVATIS

Chain of TLR-5 receptor on THP-1 cells (UniProt O60602) (O60602 21-858 limits assumed): as above

endotoxin-free flagellin protein (Alpha Diagnostic) (ligand)
IL-8 content in THP-1 supernatant, stimulation at 2.5 ug/mL [1]: 19.6 ng
In vitro relative potency (%), IL-8 [1]: 100%
In vitro relative potency (%), TNF-α [1]: 100%
TNF-α content in THP-1 supernatant, stimulation at 2.5 ug/mL [1]: 969 pg

B1: ASF fusion protein (N-terminal D0-D1-gE-C-terminal D1-D0, LT2) (other)
chain: AQVINTNSLSLLTQNNLNKSQSALGTAIERLSSGLRINSAKDDAAGQAIANRFTANIKGLTQASRNANDGISIAQTTEGALNEINNNLQRVRELAVQSANSTNSQSDLDSIQAEITQRLNEIDRVSGQTQFNGVKVLAQDNTLTIQVGANDGETIDIDLKQINSQTLGLDTLNVQGGGGSGGGGSGGGGSSVLRYDDFHIDEDKLDTNSVYEPYYHSDHAESSWVNRGESSRKAYDHNSPYIWPRNDYDGFLENAHEHHGVYNQGRGIDSGERLMQPTQMSAQEDLGDDTGIHVIPTLNGDDRHKIVNVDQRQYGDVFKGDLNPKPQGQRLIEVSVEENHPFTLRAPIQRIYGVRYTETWSFLPSLTCTGDAAPAIQHICLKHTTCFQDVVVDVDCAENTKEDQLAEISYRFQGKKEADQPWIVVNTSTLFDELELDPPEIEPGVLKVLRTEKQYLGVYIWNMRGSDGTSTYATFLVTWKGDEKTRNPTPAVTPQPRGAEFHMWNYHSHVFSVGDTFSLAMHLQYKIHEAPFDLLLEWLYVPIDPTCQPMRLYSTCLYHPNAPQCLSHMNSGCTFTSPHLAQRVASTVYQNCEHADNYTAYCLGISHMEPSFGLILHDGGTTLKFVDTPESLSGLYVFVVYFNGHVEAVAYTVVSTVDHFVNAIEERGFPPTAGQPPATTKPKEITPVNPGTSPLIRGGGGSGGGGSGGGGSKAQPDLAEAAATTTENPLQKIDAALAQVDTLRSDLGAVQNRFNSAITNLGNTVNNLTSARSRIEDSDYATEVSNMSRAQILQQAGTSVLAQANQVPQNVLSLLR
IL-8 content in THP-1 supernatant, stimulation at 5 ug/mL [2]: 27.8 ng
In vitro relative potency (%), IL-8 [2]: 142%
In vitro relative potency (%), TNF-α [2]: 104%
TNF-α content in THP-1 supernatant, stimulation at 5 ug/mL [2]: 1000 pg

B2: recombinant VZV gE protein (gE extracellular region), expressed in eukaryotic cells from recombinant adenovirus (other)
chain: SVLRYDDFHIDEDKLDTNSVYEPYYHSDHAESSWVNRGESSRKAYDHNSPYIWPRNDYDGFLENAHEHHGVYNQGRGIDSGERLMQPTQMSAQEDLGDDTGIHVIPTLNGDDRHKIVNVDQRQYGDVFKGDLNPKPQGQRLIEVSVEENHPFTLRAPIQRIYGVRYTETWSFLPSLTCTGDAAPAIQHICLKHTTCFQDVVVDVDCAENTKEDQLAEISYRFQGKKEADQPWIVVNTSTLFDELELDPPEIEPGVLKVLRTEKQYLGVYIWNMRGSDGTSTYATFLVTWKGDEKTRNPTPAVTPQPRGAEFHMWNYHSHVFSVGDTFSLAMHLQYKIHEAPFDLLLEWLYVPIDPTCQPMRLYSTCLYHPNAPQCLSHMNSGCTFTSPHLAQRVASTVYQNCEHADNYTAYCLGISHMEPSFGLILHDGGTTLKFVDTPESLSGLYVFVVYFNGHVEAVAYTVVSTVDHFVNAIEERGFPPTAGQPPATTKPKEITPVNPGTSPLIR
IL-8 content in THP-1 supernatant, stimulation at 5 ug/mL [2]: 0 ng
In vitro relative potency (%), IL-8 [2]: 0%
In vitro relative potency (%), TNF-α [2]: 0%
TNF-α content in THP-1 supernatant, stimulation at 5 ug/mL [2]: 0 pg

B3: ANF fusion protein (N-terminal D0-D1-C terminal D1-D0-gE, LT2) (other)
chain: AQVINTNSLSLLTQNNLNKSQSALGTAIERLSSGLRINSAKDDAAGQAIANRFTANIKGLTQASRNANDGISIAQTTEGALNEINNNLQRVRELAVQSANSTNSQSDLDSIQAEITQRLNEIDRVSGQTQFNGVKVLAQDNTLTIQVGANDGETIDIDLKQINSQTLGLDTLNVQSPGISGGGGGILDSMGKAQPDLAEAAATTTENPLQKIDAALAQVDTLRSDLGAVQNRFNSAITNLGNTVNNLTSARSRIEDSDYATEVSNMSRAQILQQAGTSVLAQANQVPQNVLSLLRGGGGSGGGGSGGGGSSVLRYDDFHIDEDKLDTNSVYEPYYHSDHAESSWVNRGESSRKAYDHNSPYIWPRNDYDGFLENAHEHHGVYNQGRGIDSGERLMQPTQMSAQEDLGDDTGIHVIPTLNGDDRHKIVNVDQRQYGDVFKGDLNPKPQGQRLIEVSVEENHPFTLRAPIQRIYGVRYTETWSFLPSLTCTGDAAPAIQHICLKHTTCFQDVVVDVDCAENTKEDQLAEISYRFQGKKEADQPWIVVNTSTLFDELELDPPEIEPGVLKVLRTEKQYLGVYIWNMRGSDGTSTYATFLVTWKGDEKTRNPTPAVTPQPRGAEFHMWNYHSHVFSVGDTFSLAMHLQYKIHEAPFDLLLEWLYVPIDPTCQPMRLYSTCLYHPNAPQCLSHMNSGCTFTSPHLAQRVASTVYQNCEHADNYTAYCLGISHMEPSFGLILHDGGTTLKFVDTPESLSGLYVFVVYFNGHVEAVAYTVVSTVDHFVNAIEERGFPPTAGQPPATTKPKEITPVNPGTSPLIR
IL-8 content in THP-1 supernatant, stimulation at 5 ug/mL [2]: 10.8 ng
In vitro relative potency (%), IL-8 [2]: 55.3%
In vitro relative potency (%), TNF-α [2]: 57%
TNF-α content in THP-1 supernatant, stimulation at 5 ug/mL [2]: 552 pg

B4: ACF fusion protein (gE-N-terminal D0-D1-C-terminal D1-D0, LT2) (other)
chain: SVLRYDDFHIDEDKLDTNSVYEPYYHSDHAESSWVNRGESSRKAYDHNSPYIWPRNDYDGFLENAHEHHGVYNQGRGIDSGERLMQPTQMSAQEDLGDDTGIHVIPTLNGDDRHKIVNVDQRQYGDVFKGDLNPKPQGQRLIEVSVEENHPFTLRAPIQRIYGVRYTETWSFLPSLTCTGDAAPAIQHICLKHTTCFQDVVVDVDCAENTKEDQLAEISYRFQGKKEADQPWIVVNTSTLFDELELDPPEIEPGVLKVLRTEKQYLGVYIWNMRGSDGTSTYATFLVTWKGDEKTRNPTPAVTPQPRGAEFHMWNYHSHVFSVGDTFSLAMHLQYKIHEAPFDLLLEWLYVPIDPTCQPMRLYSTCLYHPNAPQCLSHMNSGCTFTSPHLAQRVASTVYQNCEHADNYTAYCLGISHMEPSFGLILHDGGTTLKFVDTPESLSGLYVFVVYFNGHVEAVAYTVVSTVDHFVNAIEERGFPPTAGQPPATTKPKEITPVNPGTSPLIRGGGGSGGGGSGGGGSAQVINTNSLSLLTQNNLNKSQSALGTAIERLSSGLRINSAKDDAAGQAIANRFTANIKGLTQASRNANDGISIAQTTEGALNEINNNLQRVRELAVQSANSTNSQSDLDSIQAEITQRLNEIDRVSGQTQFNGVKVLAQDNTLTIQVGANDGETIDIDLKQINSQTLGLDTLNVQSPGISGGGGGILDSMGKAQPDLAEAAATTTENPLQKIDAALAQVDTLRSDLGAVQNRFNSAITNLGNTVNNLTSARSRIEDSDYATEVSNMSRAQILQQAGTSVLAQANQVPQNVLSLLR
IL-8 content in THP-1 supernatant, stimulation at 5 ug/mL [2]: 6.41 ng
In vitro relative potency (%), IL-8 [2]: 32.7%
In vitro relative potency (%), TNF-α [2]: 11.6%
TNF-α content in THP-1 supernatant, stimulation at 5 ug/mL [2]: 112 pg
